Measured values as given in a protein production outcome set (Wang et al. 2014).

Test: label from the status in PepcDB records

Q: For “MLTNSINYSELSDVAAFVCVVQTGSFTAAAEQLNTSKSVISKYITRLEKRLGVKLLARTTRRLTLTEIGRTFYEGSRQGLEAIDNAEEAVSFLQGKPRGTLKINAPLSFGALHIAPALEEFIHRYPEMQIDLRFDDKKIDMIKDGFDLTVRITHQLEGNLIARRIAPCHHALVAAPNYLAKRGTPKRPEDLVAHNVITYQYQQSPWEWEFTAAKSKPKRVRVNGSVQMNNSLAIREAVLAGVGISRMPTFAVGEDIKSGRLIQLLPKYSLLEHSIYLVFPERNHMAPKTRAFIDYMVKIMEGKPSWDRF”, which protein production is on record?
A: failed

Q: For “MLTNVVAVLLDGVHPFELGVVCEVFGIDRSDEGLPVYEFAVASAEGPTLRTHAGFSLRTEHGLERLETADLITLPAGNSYVSRGYPPELLDALRRAVDRGARLLSVCSGVFVLGAAGLLDGRRCAVHWHHADELARQYPKAIVEPDVLYVDEDPVITSAGTAAGIDACLHIVRKEQGPEVANAIARRMVVPPHRDGGQAQYIERPLPRSPCDTVGEVLVWMEQHLDEEVTVEQLAARAHMSPRTFARRFQQETGTTPYRWILRQRVLLAQRLLEVTDETMDAIAGRTGFGTAAALRHQFVRSLGTTPNAYRRTFRGPATGPLGLAG”, which protein production is on record?
A: failed

Q: Which protein production does the source give for “MLTPRFDIQPAVSVILPTFDRAPLLASAIESVVAQNFAEWELIVVDDGSSDETFEIVDGYLNQHANIRYMKHRNRKAALSRNAGIQAAFGRYITFLDSDDLYLPEHLESRLHLLESMPEVRLISGGFVCEGDPWVRDRDDPEKLIHVSECIAGATMFGRRELFLDIGGFRALDYAEDTDLWERAARSHKVLKIDQPVSYIYRRSPGSITRTYKPAKPLEHHHHHH” here?
A: not failed

Q: For “MLTQANIPSWYEGLNKSGLTPPGPVFSIVWSILYALLAIVGWVLWCSRNESEMRSVFYLYSVQMLMNWAWTPLFFVLHWTGLSFLWILVMAGLTGLLMFSQTNKKKSLAILLLPYLIWLLFAAYLNGVIWLLN”, which protein production is on record?
A: failed

Q: With “MLTQFLNLLATIISVISLLIVTYGALIAIISFIINELKRVTGAYTPTNIRKLRAVFGTYLLLGLEFLIASDILKTVLEPTMNELIILGGIVVVRTILSVFLNKEIKELETENN” as the sequence, how does the protein production read?
A: failed

Q: Which protein production does the source give for “MLTQTLDSPSGAKRLRVMSRHEREPVSQSKTDFSQQTRWMLAVRDNRDRLAFAALFDHFAPRLKGFVIRSGTPAHQAEEIVQDVMLTIWRKAAMFDPHRAQVSAWIYQIARNRQIDIARKENRPMPEELKEEPGTEPDASQILGLEQEAGQLKQALANLKPEQREIIEKAYLGELTHQEISAQTGLPLGTIKSRIRLGLERLRYELKDLKQ” here?
A: failed

Q: Which protein production does the source give for “MLTRAIKTQLVLLTVLAVIAVVVLGWYFLRIPSLVGIGRYTLYAELPRSGGLYRTANVTYRGITIGKVTGVEPTERGARATMSIDNGYQIPTDASANVHSVSAVGEQFVDLVSTRTSGPYLRHGQTITTTTVPSQIGPALDAANRGLAVLPKDRVASVLHEASEAVGGLGSSLNRLIEATQAIAHDVRGSLEDIDDIIERSAPIIDSQVNSGNEIARWAANLNTLAAQTAQTDPAVRSILANAAPTADQVNATFSDVRESLPQTLANLEVVIDMLKRYHNGVEQALVFLPQSGAIAQSVTTEFPGQAGLGVGGLALNQPPPCLTGFLPASEWRSPADTSTAPLPKGTYCRIPMDASNVVRGARNNPCVDVPGKRAATPRECRSNEAYVPGGTNPWYGDPNQMLSCPAPAARCDQPVKPGQVIPAPSVNNGINPLPADQLPGTPPPVNDPLQRPGSGTVQCNGQQPNPCVYTPSTFPTTIYDVQSGKVVAPDGVVYSVEASTHAGADGWKVMLAPTG” here?
A: failed

Q: For “MLTTLAIGNYRSINHLVLPLSQLNLVTGANGSGKSNLYKALRLLAETAQGGVVEALAREGGLDSTWWAGPETSARMRRGEVPIQGQHPSEVRRLRLGFATEDLGFAITLGLPIPLPYPSAFMLDPEIKCEAIWGAGAYRPSSLLVERKNALVRAREGNRWAVLDQHADSGESFFNIVGRPRQAPEIGDLRAFINSWRFYDHFRIDRDAPCRQPQLGTRSPVLHHDGRNLASALQTIIEIGDVEDLEEALNDAFPGSRLEINAPPGGLFSVRLHQHGLLRPLEGAELSDGTLRYLLLMAALLTPRPPSLMVLNEPETSLHADLLPALARLIIRASRRSQVWVVSHSAPLINALAACDGCNVLELEKIQGQTQLRGVGLLDEPLWRWAD”, which protein production is on record?
A: failed

Q: Which protein production does the source give for “MLTVHRDARDYQIIFLCSFLSLGILARDWSLSPLVIAVVLATALTVQSLFTINQQGNFSRWFSLDTWQSLWRHQGWKSALITGLGLCLLLRANHLSTLILAASLAIASKFLLQAWGKHWFNPANFGIIAALTLTGDAWVSPGQWGTTLWLGAVFLAAGGLVLGKVGRWDTSIMFLAVYAGLDLARNAWLGWPPEVSFHHLENGSLLVFALFMLTDPRSIPNARSSRLIWATAIAIFSLILQYHFYLPTALFWALFCLSPLTVLLDRQFPAPRFQWWQKKNPVPSN” here?
A: failed
